Results taken from PMC3384314.

What was measured:
[1] = biological target: T1, dHEXIM WT (Drosophila, UniProt Q7K4N7 1-349); assay: EMSA
T1 sequence: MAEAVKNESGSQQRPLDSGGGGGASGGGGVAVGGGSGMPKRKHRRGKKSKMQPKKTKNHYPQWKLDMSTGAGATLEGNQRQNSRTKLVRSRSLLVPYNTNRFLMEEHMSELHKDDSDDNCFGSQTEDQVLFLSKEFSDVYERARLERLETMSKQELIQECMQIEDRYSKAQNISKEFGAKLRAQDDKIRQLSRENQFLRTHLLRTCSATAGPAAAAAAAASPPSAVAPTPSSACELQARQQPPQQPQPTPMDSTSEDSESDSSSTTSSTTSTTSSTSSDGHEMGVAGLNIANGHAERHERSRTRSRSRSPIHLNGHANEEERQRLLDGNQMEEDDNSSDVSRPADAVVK

[2] = biological target: T2, dHEXIM ILAA (Drosophila, UniProt Q7K4N7 1-349, K42I;H43L;R44A;R45A); assay: EMSA
T2 sequence: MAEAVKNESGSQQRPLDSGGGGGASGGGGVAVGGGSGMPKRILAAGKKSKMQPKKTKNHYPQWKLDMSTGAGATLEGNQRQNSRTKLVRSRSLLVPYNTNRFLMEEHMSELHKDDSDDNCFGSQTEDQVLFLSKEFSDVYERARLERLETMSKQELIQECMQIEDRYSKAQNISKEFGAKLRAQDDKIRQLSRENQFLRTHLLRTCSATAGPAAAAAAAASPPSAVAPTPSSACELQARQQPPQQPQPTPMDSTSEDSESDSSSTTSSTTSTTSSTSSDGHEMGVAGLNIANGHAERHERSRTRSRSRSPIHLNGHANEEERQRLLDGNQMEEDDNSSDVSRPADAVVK

B1: dsRNA oligo (TTF2 25-mer) (dsRNA)
RNA 1: CAAGCAAGAGGCAGAGAUCCCAGGU
RNA 2: ACCUGGGAUCUCUGCCUCUUGCUUG
- binding result [1]: binds
- binding result [2]: no binding
